Measured values: PMC3564804, “A Visual Dual-Aptamer Logic Gate for Sensitive Discrimination of Prion Diseases-Associated Isoform with Reusable Magnetic Microparticles and Fluorescence Quantum Dots”

Molecular target: PrPC, native state (recombinant human prion protein) (human, UniProt P04156 23-231)

Binder	binding signal
CTTACGGTGGGGCAATT (ssDNA, 5'-NH2) [Apt1]	2.41 fluorescence ratio
GTTTTGTTACAGTTCGTTTCTTTTCCCTGTCTTGTTTTGTTGTCT (ssDNA, 5'-biotin) [Apt2]	2.41 fluorescence ratio
